{
  "source": "patent US20190381184A1",
  "about": "(UNIVERSITY OF NORTH CAROLINA AT CHAPEL HILL, published 2019)",
  "binders": {"B1": {"name": "trivalent PD-L1 trap (PD-1 extracellular domain - flexible linker - CMP-1 trimerization domain fusion, self-assembled trimer) (other)", "chain": "GSGPPTFSPALLVVTEGDNATFTCSFSNTSESFVLNWYRMSPSNQTDKLAAFPEDRSQPGQDSRFRVTQLPNGRDFHMSVVRARRNDSGTYLCGAISLAPKAQIKESLRAELRVTERRAEGPQPQPKPQPKPEPEPQPQGGSEEDPCACESILKFEAKVEGLLQALTRKLEAVSGRLAVLENRIIAAAGAPVPYPDPLEPRGGSHHHHHH", "notes": "also called trimeric trap; trivalent protein"}},
  "key": {"PD-L1 [1]": {"biological_target": "PD-L1", "sequence (chain, as listed by the source)": "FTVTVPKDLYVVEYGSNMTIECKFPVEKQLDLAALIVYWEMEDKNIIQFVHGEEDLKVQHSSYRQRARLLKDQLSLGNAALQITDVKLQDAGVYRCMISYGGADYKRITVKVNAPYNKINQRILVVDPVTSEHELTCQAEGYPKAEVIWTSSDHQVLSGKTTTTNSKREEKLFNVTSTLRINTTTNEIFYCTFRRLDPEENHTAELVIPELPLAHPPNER", "assay": "Octet (BLI); compared with the endogenous PD-1/PD-L1 interaction"}, "PD-L1 [2]": {"biological_target": "PD-L1", "assay": "Octet binding kinetics"}, "PD-L1 [3]": {"biological_target": "PD-L1", "assay": "Octet (BLI) binding kinetics of the trivalent PD-L1 trap with PD-L1"}},
  "data": [
    {"binder": "B1", "values": [
      {"measurement": "fold higher than between endogenous PD-1 and PD-L1", "setting": "PD-L1 [1]", "value": 10000, "unit": "fold"},
      {"measurement": "Kd", "setting": "PD-L1 [2]", "value": "~0.0162", "unit": "nM"},
      {"measurement": "Kd", "setting": "PD-L1 [3]", "value": "~0.016", "unit": "nM"}
    ]}
  ]
}
